Target: ES-62 (Acanthocheilonema viteae)
Experiment: SPR; Biacore 3000; 300 RU of ES-62 amine-coupled to a CM5 chip; CRP 10 ug/ml to 20 ng/ml flowed at 10 ul/min; HBS with 1 mM CaCl2 and 0.005% P20, pH 7.4; Langmuir 1:1 analysis, ka and kd calculated separately; avidity

B1: C-reactive protein (native, human) (natural protein)
chain: QTDMSRKAFVFPKESDTSYVSLKAPLTKPLKAFTVCLHFYTELSSTRGYSIFSYATKRQDNEILIFWSKDIGYSFTVGGSEILFEVPEVTVAPVHICTSWESASGIVEFWVDGKPRVRKSLKKGYTVGAEASIILGQEQDSFGGNFEGSQSLVGDIGNVNMWDFVLSPDEINTIYLGGPFSPNVLNWRALKYEVQGEVFTKPQLWP
Kd: 100 pM
koff: 0.0006 to 0.0014 s⁻¹

— article PMC4882459
